Measured values taken from patent US20250027945A1.

Columns and labels:
[1] = biological target: human RYK on the surface of human tumor cell lines (human) (UniProt P34925); test: flow cytometry, JEKO cells (mantle), isotype matched control mAb, equal amount
[2] = biological target: human RYK on the surface of human tumor cell lines (human) (UniProt P34925); test: flow cytometry, SKBR3 cells (breast), isotype matched control mAb, equal amount
[3] = biological target: human RYK on the surface of human tumor cell lines (human) (UniProt P34925); test: flow cytometry, SW620 cells (colon), isotype matched control mAb, equal amount
[4] = biological target: human RYK on the surface of human tumor cell lines (human) (UniProt P34925); test: flow cytometry, K562 cells (CML), isotype matched control mAb, equal amount
[5] = biological target: human RYK on the surface of human tumor cell lines (human) (UniProt P34925); test: flow cytometry, PC3 cells (prostate), isotype matched control mAb, equal amount
[6] = biological target: human RYK on the surface of human tumor cell lines (human) (UniProt P34925); test: flow cytometry, HT29 cells (colon), isotype matched control mAb, equal amount
[7] = biological target: human RYK on the surface of human tumor cell lines (human) (UniProt P34925); test: flow cytometry, NALM6 cells (ALL), isotype matched control mAb, equal amount
[8] = biological target: human RYK on the surface of human tumor cell lines (human) (UniProt P34925); test: flow cytometry, MINO cells (mantle), isotype matched control mAb, equal amount
[9] = biological target: human RYK on the surface of human tumor cell lines (human) (UniProt P34925); test: flow cytometry, A673 cells (Ewings sarcoma), isotype matched control mAb, equal amount
[10] = biological target: human RYK on the surface of human tumor cell lines (human) (UniProt P34925); test: flow cytometry, MDA-MB-231 cells (breast), isotype matched control mAb, equal amount
[11] = biological target: human RYK on the surface of human tumor cell lines (human) (UniProt P34925); test: flow cytometry, HS683 cells (brain), isotype matched control mAb, equal amount
[12] = biological target: human RYK on the surface of human tumor cell lines (human) (UniProt P34925); test: flow cytometry, HELA cells (ovarian as printed), isotype matched control mAb, equal amount
[13] = biological target: human RYK on the surface of human tumor cell lines (human) (UniProt P34925); test: flow cytometry, OVCAR4 cells (ovarian), isotype matched control mAb, equal amount
[14] = biological target: human RYK on the surface of human tumor cell lines (human) (UniProt P34925); test: flow cytometry, HS-578T cells (breast), isotype matched control mAb, equal amount
[15] = biological target: human RYK on the surface of human tumor cell lines (human) (UniProt P34925); test: flow cytometry, RAMOS cells (Burkitt NHL), isotype matched control mAb, equal amount
[16] = biological target: human RYK on the surface of human tumor cell lines (human) (UniProt P34925); test: flow cytometry, JURKAT cells (T-cell ALL), isotype matched control mAb, equal amount
[17] = biological target: human RYK on the surface of human tumor cell lines (human) (UniProt P34925); test: flow cytometry, NCI H226 cells (lung), isotype matched control mAb, equal amount
[18] = biological target: human RYK on the surface of human tumor cell lines (human) (UniProt P34925); test: flow cytometry, SH-SY5Y cells (brain), isotype matched control mAb, equal amount
[19] = biological target: human RYK on the surface of human tumor cell lines (human) (UniProt P34925); test: flow cytometry, CAPAN-2 cells (pancreas), isotype matched control mAb, equal amount
[20] = biological target: human RYK on the surface of human tumor cell lines (human) (UniProt P34925); test: flow cytometry, T47-D cells (breast), isotype matched control mAb, equal amount
[21] = biological target: human RYK on the surface of human tumor cell lines (human) (UniProt P34925); test: flow cytometry, MCF7 cells (breast), isotype matched control mAb, equal amount
[22] = biological target: human RYK on the surface of human tumor cell lines (human) (UniProt P34925); test: flow cytometry, MOLT4 cells (T-cell ALL), isotype matched control mAb, equal amount
[23] = biological target: human RYK on the surface of human tumor cell lines (human) (UniProt P34925); test: flow cytometry, DU-145 cells (prostate), isotype matched control mAb, equal amount
[24] = biological target: human RYK on the surface of human tumor cell lines (human) (UniProt P34925); test: flow cytometry, SW948 cells (colon), isotype matched control mAb, equal amount
[25] = biological target: human RYK on the surface of human tumor cell lines (human) (UniProt P34925); test: flow cytometry, EW36 cells (NHL), isotype matched control mAb, equal amount
[26] = biological target: human RYK on the surface of human tumor cell lines (human) (UniProt P34925); test: flow cytometry, SK-OV-3 cells (ovarian), isotype matched control mAb, equal amount
[27] = biological target: human RYK on the surface of human tumor cell lines (human) (UniProt P34925); test: flow cytometry, BT549 cells (breast), isotype matched control mAb, equal amount
[28] = biological target: human RYK on the surface of human tumor cell lines (human) (UniProt P34925); test: flow cytometry of dissociated primary triple-negative breast cancer PDX cells M0026 (T1), fluorochrome-conjugated isotype control mAb; count 15903
[29] = biological target: human RYK on the surface of human tumor cell lines (human) (UniProt P34925); test: flow cytometry, NCI H1155 cells (lung), isotype matched control mAb, equal amount
[30] = biological target: human RYK on the surface of human tumor cell lines (human) (UniProt P34925); test: flow cytometry, RAJI cells (Burkitt NHL), isotype matched control mAb, equal amount
[31] = biological target: human RYK on the surface of human tumor cell lines (human) (UniProt P34925); test: flow cytometry, SK-MES-1 cells (lung), isotype matched control mAb, equal amount
[32] = biological target: human RYK on the surface of human tumor cell lines (human) (UniProt P34925); test: flow cytometry, A549 cells (lung), isotype matched control mAb, equal amount
[33] = biological target: human RYK on the surface of human tumor cell lines (human) (UniProt P34925); test: flow cytometry, COLO 829 cells (melanoma), isotype matched control mAb, equal amount
[34] = biological target: human RYK on the surface of human tumor cell lines (human) (UniProt P34925); test: flow cytometry, SK-MEL-2 cells (skin), isotype matched control mAb, equal amount
[35] = biological target: human RYK on the surface of human tumor cell lines (human) (UniProt P34925); test: flow cytometry, H446 cells (lung), isotype matched control mAb, equal amount
[36] = biological target: human RYK on the surface of human tumor cell lines (human) (UniProt P34925); test: flow cytometry, REH cells (ALL), isotype matched control mAb, equal amount
[37] = biological target: human RYK on the surface of human tumor cell lines (human) (UniProt P34925); test: flow cytometry, H292 cells (lung), isotype matched control mAb, equal amount
[38] = biological target: human RYK on the surface of human tumor cell lines (human) (UniProt P34925); test: flow cytometry, HT144 cells (skin), isotype matched control mAb, equal amount
[39] = biological target: human RYK on the surface of human tumor cell lines (human) (UniProt P34925); test: flow cytometry, T24 cells (bladder), isotype matched control mAb, equal amount
[40] = biological target: human RYK on the surface of human tumor cell lines (human) (UniProt P34925); test: flow cytometry, NCI H929 cells (melanoma as printed), isotype matched control mAb, equal amount
[41] = biological target: human RYK on the surface of human tumor cell lines (human) (UniProt P34925); test: flow cytometry, MEC1 cells (CLL), isotype matched control mAb, equal amount
[42] = biological target: human RYK on the surface of human tumor cell lines (human) (UniProt P34925); test: flow cytometry, H460 cells (lung), isotype matched control mAb, equal amount
[43] = biological target: human RYK on the surface of human tumor cell lines (human) (UniProt P34925); test: flow cytometry, CAPAN-1 cells (pancreas), isotype matched control mAb, equal amount
[44] = biological target: human RYK on the surface of human tumor cell lines (human) (UniProt P34925); test: flow cytometry, U937 cells (monocyte cancer), isotype matched control mAb, equal amount

Chain of human RYK on the surface of human tumor cell lines (human) (P34925 46-607 limits assumed, form in doubt): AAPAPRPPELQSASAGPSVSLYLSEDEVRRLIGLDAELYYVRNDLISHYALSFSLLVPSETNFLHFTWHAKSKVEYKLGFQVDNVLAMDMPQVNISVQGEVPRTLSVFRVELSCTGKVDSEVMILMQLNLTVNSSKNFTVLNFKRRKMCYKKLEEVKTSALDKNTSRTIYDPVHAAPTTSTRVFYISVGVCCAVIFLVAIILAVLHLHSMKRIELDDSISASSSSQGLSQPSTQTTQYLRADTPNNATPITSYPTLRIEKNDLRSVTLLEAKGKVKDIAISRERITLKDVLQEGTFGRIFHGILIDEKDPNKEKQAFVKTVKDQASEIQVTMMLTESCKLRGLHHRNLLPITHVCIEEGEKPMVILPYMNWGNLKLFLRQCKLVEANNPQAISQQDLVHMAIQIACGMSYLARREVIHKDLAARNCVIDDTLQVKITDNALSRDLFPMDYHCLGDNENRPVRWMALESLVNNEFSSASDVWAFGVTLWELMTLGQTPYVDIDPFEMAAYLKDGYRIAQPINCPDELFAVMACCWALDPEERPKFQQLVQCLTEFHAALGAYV

Substance: isotype matched control mAb (antibody)
- MFI [1]: 3.9
- MFI [2]: 73.9
- MFI [3]: 5.6
- MFI [4]: 2.8
- MFI [5]: 2.8
- MFI [6]: 100
- MFI [7]: 5.7
- MFI [8]: 7.6
- MFI [9]: 52
- MFI [10]: 8.3
- MFI [11]: 229
- MFI [12]: 6.1
- MFI [13]: 61
- MFI [14]: 7.3
- MFI [15]: 6.1
- MFI [16]: 5.7
- MFI [17]: 6
- MFI [18]: 4.1
- MFI [19]: 4.7
- MFI [20]: 25.7
- MFI [21]: 5.2
- MFI [22]: 5.1
- MFI [23]: 3.2
- MFI [24]: 30.7
- MFI [25]: 5.6
- MFI [26]: 5.6
- MFI [27]: 197
- Median : Comp-Alexa Fluor 647-A [28]: 39.9
- MFI [29]: 6.2
- MFI [30]: 6.4
- MFI [31]: 156
- MFI [32]: 4.8
- MFI [33]: 6.9
- MFI [34]: 7
- MFI [35]: 23.3
- MFI [36]: 7.4
- MFI [37]: 107
- MFI [38]: 126
- MFI [39]: 72.6
- MFI [40]: 43.8
- MFI [41]: 4.3
- MFI [42]: 58
- MFI [43]: 86.9
- MFI [44]: 6.7
